The values below come from US20030157688A1 (Scripps Research, published 2003).

B1: chimeric 5T3H fiber protein (Ad5 fiber tail and shaft with the Ad3 fiber knob) (other)
chain: MKRARPSEDTFNPVYPYDTETGPPTVPFLTPPFVSPNGFQESPPGVLSLRLSEPLVTSNGMLALKMGNGLSLDEAGNLTSQNVTTVSPPLKKTKSNINLEISAPLTVTSEALTVAAAAPLMVAGNTLTMQSQAPLTVHDSKLSIATQGPLTVSEGKLALQTSGPLTTTDSSTLTITASPPLTTATGSLGIDLKEPIYTQNGKLGLKYGAPLHVTDDLNTLTVATGPGVTINNTSLQTKVTGALGFDSQGNMQLNVAGGLRIDSQNRRLILDVSYPFDAQNQLNLRLGQGPLFINSAHNLDINYNKGLYLFTASNNSKKLEVNLSTAKGLMFDATAIAINAGDGLEFGSPNAPNTNPLKTKIGHGLEFDSNKAMVPKLGTGLSFDSTGAITVGNKNNDKLTLWTGPKPEANCIIEYGKQNPDSKLTLILVKNGGIVNGYVTLMGASDYVNTLFKNKNVSINVELYFDATGHILPDSSSLKTDLELKYKQTADFSARGFMPSTTAYPFVLPNAGTHNENYIFGQCYYKASDGALFPLEVTVMLNKRLPDSRTSYVMTFLWSLNAGLAPETTQATLITSPFTFSYIREDD

In one assay the target is Ad3 receptor. Description: cell-based or functional assay.
Assay [1] deals with T1, wild-type adenovirus type 5 (Ad5) fiber protein (human adenovirus type 5, UniProt P11818 1-581).
T1 construct: also called type 5 fiber protein; recombinant Ad5 fiber
T1 sequence: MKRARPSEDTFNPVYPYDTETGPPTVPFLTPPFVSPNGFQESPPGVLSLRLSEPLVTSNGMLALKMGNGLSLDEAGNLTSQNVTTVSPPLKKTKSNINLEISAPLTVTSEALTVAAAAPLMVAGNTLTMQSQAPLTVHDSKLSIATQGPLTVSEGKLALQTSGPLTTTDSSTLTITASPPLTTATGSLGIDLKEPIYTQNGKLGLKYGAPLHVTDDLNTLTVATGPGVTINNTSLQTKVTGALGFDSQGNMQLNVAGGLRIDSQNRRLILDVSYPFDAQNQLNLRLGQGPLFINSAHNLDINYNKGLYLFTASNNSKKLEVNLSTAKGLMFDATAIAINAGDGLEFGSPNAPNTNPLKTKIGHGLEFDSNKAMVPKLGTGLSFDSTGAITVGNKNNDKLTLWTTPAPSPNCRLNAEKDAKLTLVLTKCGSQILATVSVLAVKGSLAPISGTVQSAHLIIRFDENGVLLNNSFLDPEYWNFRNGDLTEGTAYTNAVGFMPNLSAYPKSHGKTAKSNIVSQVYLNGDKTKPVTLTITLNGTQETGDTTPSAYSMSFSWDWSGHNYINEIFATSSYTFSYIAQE
Description: Western blot of particles purified from 633 cells. A general note: Immunoblotting shows a protein as a band on a membrane.

The target of assay [2] is B1. Description: fiber-deleted vector grown in 644 cells.

For B1, the “infection of EBV-transformed lymphoblastoid cell lines (X-gal stained cells)” value in the assay with Ad3 receptor was not below 10 fold.

B2: Ad5 penton base protein (in the capsid of Ad5.βgal.ΔF / Ad5 vector particles) (other)
chain: MRRAAMYEEGPPPSYESVVSAAPVAAALGSPFDAPLDPPFVPPRYLRPTGGRNSIRYSELAPLFDTTRVYLVDNKSTDVASLNYQNDHSNFLTTVIQNNDYSPGEASTQTINLDDRSHWGGDLKTILHTNMPNVNEFMFTNKFKARVMVSRLPTKDNQVELKYEWVEFTLPEGNYSETMTIDLMNNAIVEHYLKVGRQNGVLESDIGVKFDTRNFRLGFDPVTGLVMPGVYTNEAFHPDIILLPGCGVDFTHSRLSNLLGIRKRQPFQEGFRITYDDLEGGNIPALLDVDAYQASLKDDTEQGGGGAGGSNSSGSGAEENSNAAAAAMQPVEDMNDHAIRGDTFATRAEEKRAEAEAAAEAAAPAAQPEVEKPQKKPVIKPLTEDSKKRSYNLISNDSTFTQYRSWYLAYNYGDPQTGIRSWTLLCTPDVTCGSEQVYWSLPDMMQDPVTFRSTRQISNFPVVGAELLPVHSKSFYNDQAVYSQLIRQFTSLTHVFNRFPENQILARPPAPTITTVSENVPALTDHGTLPLRNSIGGVQRVTITDARRRTCPYVYKALGIVSPRVLSSRTF
notes: The assays used whole virions; also called fiberless adenovector (penton base at the vertices)
Turning to B2, the binding result in assay [1] and in assay [2] was “binds” each time.
